Laboratory results reported in the supplement of paper PMC10724198.
± gives the standard deviation of the averaged measurements.

Tested on: Saccharomyces cerevisiae
Assay: protein stability index of tFT-peptide fusion (C-terminal peptide) (PSI (0-1 scale)); higher = more stable (slower turnover)
Conditions: genetic background: wild type; temperature: 30 C
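Further: PSI is a weighted mean of sequencing reads over stability bins, variants kept only with over 10 reads, mCherry proximal and sfGFP distal, peptide attached via GGGS linker.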

Sequence	protein stability index
AHRSIFSASSLL	0.668 ± 0.084
PSTPPGPPPASH	0.758 ± 0.011
HTLQDNHRLPRA	0.6058 ± 0.0029
TWRRGSKPHVRS	0.724 ± 0.044
SCNLYVGQVKSG	0.649 ± 0.036
SLLSRYFLLPLL	0.545 ± 0.061
KSDSRISGTVVV	0.652 ± 0.059
PPLLLLRRRSPS	0.699 ± 0.062
PPSRPLPALPFP	0.676 ± 0.097
PPPLLSHPFLPP	0.69 ± 0.057
PSTVSPFRPPIT	0.711 ± 0.039
RNRRKTLMETRS	0.695 ± 0.082
PNVSPTPPYSSP	0.691 ± 0.023
RGGDGGGLRTRD	0.688 ± 0.037
GGGGSGRRIGCR	0.696 ± 0.035
PLALARSPPPSP	0.671 ± 0.02
CGLSAGIVLFFC	0.58 ± 0.012
PHLAAPAPALQD	0.613 ± 0.056
RLLLPSTLLPPR	0.761 ± 0.13
YSVPDFIVVSHL	0.797 ± 0.12
KNSKNIRNKTNE	0.711 ± 0.017
RELGAWSFITSV	0.705 ± 0.014
ASENESDDEKLF	0.7 ± 0.071
VGHCSEGTFYPG	0.65 ± 0.12
SLEYIFSCWSLY	0.711 ± 0.1
GGGGGVGVEGEP	0.723 ± 0.067

Sequence	protein stability index
GMIRDKEVVGGG	0.651 ± 0.11
LSGRGVGSEGME	0.721 ± 0.14
LLSLALFACSIC	0.63 ± 0.023
SNKGIKNIKKKT	0.728 ± 0.0084
KMIDNKQKSVAV	0.675 ± 0.012
LCSIESGPICIL	0.676 ± 0.0097
PPPSPPDCLPLP	0.649 ± 0.086
RPSTSRKVKIDV	0.663 ± 0.066
LGSITDRLLRRR	0.772 ± 0.14
PPPPPNPIPPTF	0.713 ± 0.028
DPPHPPPSPLPA	0.699 ± 0.02
HRAPACEHDIKK	0.705 ± 0.015
SQKNTQLEADGK	0.661 ± 0.0093
GGGGLGRGKGCW	0.706 ± 0.03
RAVHSSPHVSLS	0.681 ± 0.013
MVRNCPYSLSFL	0.734 ± 0.07
VFPVGSGLWRVF	0.63 ± 0.016
HGIGRDTSEHGR	0.645 ± 0.025
TWGRPGGDHPRE	0.708 ± 0.0096
GRGRVAAGFVAR	0.737 ± 0.039
QEKKKVNKKENK	0.737 ± 0.045
NKKTKNNKGNKQ	0.728 ± 0.063
NICLPLAHRTPG	0.655 ± 0.017
SLAVATAVLLYP	0.666 ± 0.035
DPHINARERTPL	0.814 ± 0.2
TLVPAYRCEWCA	0.736 ± 0.046

Sequence	protein stability index
GGGARWGWGGRM	0.648 ± 0.033
PFFLAFPPSPPT	0.723 ± 0.029
GMRGGKGKPAET	0.728 ± 0.0096
SRAYDKSRNISI	0.731 ± 0.062
LPPPPPPSHPPP	0.697 ± 0.018
ARGGTAVYKAAG	0.668 ± 0.02
LKMGAWAHTETW	0.645 ± 0.033
TGRGVFCMSIHM	0.643 ± 0.045
TDPLGDDSSESE	0.672 ± 0.048
PPPSLPPLPSPS	0.725 ± 0.027
VPRPPGPPPGPV	0.667 ± 0.053
ALPTLALPPCRS	0.73 ± 0.1
VLVPVDRCGYIG	0.619 ± 0.11
GQLMRPSFSVSC	0.658 ± 0.009
ATGGGSFKRRVS	0.53 ± 0.014
LAAVCFYPFCCF	0.641 ± 0.017
PPPLPPPPLPGL	0.676 ± 0.0084
WPLVLSYRKESA	0.803 ± 0.22
NKGHGAHSRECE	0.65 ± 0.025
SIERNEGRKKLG	0.708 ± 0.064
AGDGCGDWGRLS	0.761 ± 0.11
FCLDLLVGLVFL	0.546 ± 0.035
PSRVPTPLPHFT	0.737 ± 0.049
GSSPLLFSLLES	0.751 ± 0.076
TSGAKKISSGTQ	0.707 ± 0.036
RMGAEDTGCRRP	0.657 ± 0.062

Sequence	protein stability index
SWVELCSQEVVI	0.603 ± 0.01
VPALLPLLPSPP	0.712 ± 0.03
WRPLIPPSLPPL	0.6977 ± 0.0069
PKTPRFWLLFPA	0.699 ± 0.022
PNFYPLWLNLPL	0.813 ± 0.086
LRPPLASLRFSP	0.78 ± 0.11
GGVECVRGTGGR	0.659 ± 0.046
PPHPQRANAPGH	0.6615 ± 0.0057
PGPPADLAPPPP	0.753 ± 0.018
VTPLPSLPHHRA	0.604 ± 0.041
TARAGRTASAPR	0.7084 ± 0.0025
PSGRPPGHDNLV	0.666 ± 0.045
PPPPPPPRPLTP	0.68 ± 0.059
RWSYCLVFSLGL	0.532 ± 0.015
ARRAWPPPTPLF	0.719 ± 0.058
LGSCPPPPAPPP	0.638 ± 0.037
YCTVDECWGRWH	0.709 ± 0.08
GSGRRGLMGRKS	0.728 ± 0.011
PFCKTDHMSMTV	0.682 ± 0.039
DHKKNKIKKKKE	0.685 ± 0.097
ESRRKRRVAGPN	0.7072 ± 0.0066
YFNNVFQVAGGF	0.639 ± 0.025
IALTSVRIPSSP	0.678 ± 0.047
PPPGPRQRPPPH	0.665 ± 0.087
PPRRAPPPIRLP	0.746 ± 0.074
SLLAGSSLPFSP	0.696 ± 0.0074

Sequence	protein stability index
GILVALGSPLLV	0.592 ± 0.048
TSPPPPIPLPPR	0.695 ± 0.032
PSFLTGRPISPV	0.677 ± 0.018
TTLPFLLGSGGF	0.677 ± 0.065
PPSPLSTLPSPH	0.679 ± 0.045
PPALRPNPPLPL	0.7769 ± 0.0016
GVAYSIVKKKKK	0.684 ± 0.036
STPPAPPPLLPP	0.736 ± 0.031
LRGGGGAGVFFG	0.6491 ± 0.0025
GRVRLGMKETLS	0.713 ± 0.016
SVVVIGSSYASG	0.5899 ± 0.0023
YLGCSLAMAFSL	0.6278 ± 0.0054
WCLRVRASGRGG	0.786 ± 0.3
GLDEVKVVSKKK	0.689 ± 0.051
LGKWWDEECGEI	0.7834 ± 0.0042
PRLPGPAAIARR	0.6714 ± 0.004
RDGGSTDGGKRR	0.697 ± 0.024
TLSYSPPCSPRH	0.742 ± 0.03
WDLPKTLCSKYT	0.727 ± 0.013
CLEEVVCRVRGA	0.643 ± 0.0096
VVRWRMGLFGGR	0.654 ± 0.013
SGKFGACVDRGI	0.7236 ± 0.00012
LTQPPPAPRVFF	0.699 ± 0.013
IKRIYQKKIERK	0.762 ± 0.067
YLLLAFQRPTPG	0.694 ± 0.019
VPPPLPSPPSHP	0.761 ± 0.038

Sequence	protein stability index
PPLPPPPSPALL	0.75 ± 0.019
YQSLVSIDLGFS	0.745 ± 0.034
GIARRSHSNETV	0.766 ± 0.078
TEKQSGRINTAI	0.653 ± 0.034
IGEGLLFWFGIR	0.66 ± 0.042
SPKGRVISRRQP	0.602 ± 0.034
LSYSLSSPRVFH	0.7337 ± 0.0022
PLPPLTPASPHP	0.72 ± 0.035
VYFLWPRFVCDA	0.585 ± 0.044
RQNPRLPPPFQP	0.731 ± 0.052
LDSWKQDLYTVC	0.674 ± 0.033
FFLLGRGVCLGA	0.663 ± 0.054
KKKSKKKNKKKE	0.766 ± 0.11
LEWVRPCDLFPC	0.7198 ± 0.005
SQLGDGLLGEGV	0.697 ± 0.044
PLPPTPPPALSQ	0.7 ± 0.018
RNIQKLNKIKKK	0.753 ± 0.15
ARRGLVWTEGGG	0.718 ± 0.011
GGKARKRKDKRA	0.645 ± 0.1
GNTPERVQRRWE	0.632 ± 0.086
PAVSRPPLPSVH	0.7 ± 0.089
EKSRSLACQHST	0.6725 ± 0.0052
PSRDPPAGPRAR	0.684 ± 0.048
LFFFPPVPISSV	0.601 ± 0.0008
PPTFFQRSPLRP	0.681 ± 0.033
RKSKRLDQSCTR	0.703 ± 0.035

Sequence	protein stability index
SFVVFGSFFCFC	0.572 ± 0.018
KTKDGKNNRRTN	0.687 ± 0.009
AGHLLDVRLLVL	0.487 ± 0.057
GILPDSCRSNTG	0.623 ± 0.081
VSVIRIVPPEFI	0.672 ± 0.03
CGQEQGCEGAVD	0.658 ± 0.12
GADGYSCGLVIT	0.539 ± 0.11
GCVGCNRWWPGW	0.721 ± 0.042
LSLVDCIGFFFC	0.603 ± 0.043
LFWARLSLVSLS	0.495 ± 0.041
GWVWILGRGRGR	0.637 ± 0.044
YPSTPPPPPHPA	0.687 ± 0.1
KKKKYKKKRKIK	0.74 ± 0.015
AKREGGGYSEDN	0.664 ± 0.086
WWGRWGASVGRG	0.686 ± 0.033
VYPRRLLPSRGL	0.668 ± 0.098
CSTYPLFPTLPP	0.693 ± 0.049
YPPREEPREDLA	0.656 ± 0.026
PPFSPSPPHVCP	0.673 ± 0.045
NTTFISRRLPPR	0.687 ± 0.0089
SFLSLLLLSSSR	0.7 ± 0.012
LKFCSTLLKFAS	0.564 ± 0.037
TTLNAETCFPLS	0.702 ± 0.043
NMVIRLIEKRKK	0.663 ± 0.021
PQYLALLRTSIP	0.739 ± 0.043
AVEGVSEVSLSG	0.656 ± 0.019

Sequence	protein stability index
GSPMRKHVTLLP	0.808 ± 0.12
WARGGRVDDGGG	0.62 ± 0.057
LQTLSTLLPSLL	0.689 ± 0.023
MKRIRKTKIKAR	0.624 ± 0.074
RIGDVIRIAEIK	0.729 ± 0.069
VCILPVTCAGMF	0.6224 ± 0.0012
PSSLPSTPPSPP	0.745 ± 0.019
AKGVYFPIKGIY	0.6436 ± 0.004
GKVSVSGRELGG	0.65 ± 0.033
PSPTLGPVSFPH	0.703 ± 0.014
SVGSLLAFLHRR	0.68336 ± 0.00055
PSLLPSRPPRSI	0.648 ± 0.034
RGVPWVVFSVGA	0.542 ± 0.015
SLYERYGRFNSS	0.656 ± 0.027
CMWDAVGFALRS	0.72 ± 0.011
FIGGCYCSVKSL	0.705 ± 0.047
FTSLCLLFLFSL	0.616 ± 0.085
YWVPPDTIKSAI	0.7362 ± 0.0032
HRTSVRIPIPPI	0.683 ± 0.012
HTAITSGYSRGL	0.633 ± 0.049
